# According to publication PMC10926643 (2024):
# T1: recombinant FGF12 fused with the His-tag (UniProt P61328 1-243)
# T1 chain: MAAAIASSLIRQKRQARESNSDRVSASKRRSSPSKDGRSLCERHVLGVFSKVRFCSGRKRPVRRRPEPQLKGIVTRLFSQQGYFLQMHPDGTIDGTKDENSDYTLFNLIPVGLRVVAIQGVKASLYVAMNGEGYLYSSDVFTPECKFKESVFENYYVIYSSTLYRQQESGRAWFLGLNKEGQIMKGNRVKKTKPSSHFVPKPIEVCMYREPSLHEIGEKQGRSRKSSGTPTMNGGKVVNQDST
# B1: recombinant galectin-8 (natural protein)
# chain: MMLSLNNLQNIIYNPVIPFVGTIPDQLDPGTLIVIRGHVPSDADRFQVDLQNGSSMKPRADVAFHFNPRFKRAGCIVCNTLINEKWGREEITYDTPFKREKSFEIVIMVLKDKFQVAVNGKHTLLYGHRIGPEKIDTLGIYGKVNIHSIGFSFSSDLQSTQASSLELTEISRENVPKSGTPQLRLPFAARLNTPMGPGRTVVVKGEVNANAKSFNVDLLAGKSKDIALHLNPRLNIKAFVRNSFLQESWGEEERNITSFPFSPGMYFEMIIYCDVREFKVAVNGVHSLEYKHRFKELSSIDTLEINGDIHLLEVRSW
# Molecular target: T1, recombinant FGF12 fused with the His-tag
# Assay: SPR
binder,measurement,value
B1,Kd,581 nM
